One molecule from article PMC8185509 (Molecular Medicine Reports, 2021) can be followed below.

This assay concerns the target T1, optic atrophy 1, Myc-tagged (OPA1-myc) (UniProt O60313-1 88-960).
T1 sequence (looked up): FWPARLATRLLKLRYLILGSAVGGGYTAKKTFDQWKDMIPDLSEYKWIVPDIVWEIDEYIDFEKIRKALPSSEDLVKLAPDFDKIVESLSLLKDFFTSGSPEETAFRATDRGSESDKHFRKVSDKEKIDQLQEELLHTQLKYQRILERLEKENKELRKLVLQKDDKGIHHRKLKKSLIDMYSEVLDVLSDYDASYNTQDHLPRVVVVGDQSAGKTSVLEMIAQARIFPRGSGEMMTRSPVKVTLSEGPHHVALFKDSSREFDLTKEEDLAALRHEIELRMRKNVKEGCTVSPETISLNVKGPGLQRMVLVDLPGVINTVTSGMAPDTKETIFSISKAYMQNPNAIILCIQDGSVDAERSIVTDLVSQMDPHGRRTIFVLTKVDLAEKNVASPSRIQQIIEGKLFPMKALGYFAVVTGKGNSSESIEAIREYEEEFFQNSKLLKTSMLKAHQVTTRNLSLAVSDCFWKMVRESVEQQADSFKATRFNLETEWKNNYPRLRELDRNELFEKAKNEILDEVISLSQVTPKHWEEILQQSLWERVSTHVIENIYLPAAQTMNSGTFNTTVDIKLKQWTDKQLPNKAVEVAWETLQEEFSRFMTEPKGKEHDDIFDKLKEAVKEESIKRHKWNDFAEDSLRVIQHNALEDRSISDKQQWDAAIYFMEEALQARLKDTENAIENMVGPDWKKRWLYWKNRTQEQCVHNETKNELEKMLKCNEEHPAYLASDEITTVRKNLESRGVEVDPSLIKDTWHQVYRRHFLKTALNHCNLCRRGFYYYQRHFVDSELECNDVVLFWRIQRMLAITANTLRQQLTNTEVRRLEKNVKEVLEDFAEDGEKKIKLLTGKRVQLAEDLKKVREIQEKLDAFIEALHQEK
The assay can be described thus: pull-down.

B1: recombinant GST-fused HIGD-1B (natural protein, human, UniProt Q9P298 1-99, looked up)
chain: MSANRRWWVPPDDEDCVSEKLLRKTRESPLVPIGLGGCLVVAAYRIYRLRSRGSTKMSIHLIHTRVAAQACAVGAIMLGAVYTMYSDYVKRMAQDAGEK
Take B1: the binding result was “binds”.
